One molecule from PMC12154184, “An Anti-BCMA Affibody Affinity Protein for Therapeutic and Diagnostic Use in Multiple Myeloma” (International Journal of Molecular Sciences, 2025) can be followed below.

This assay addresses T1, human APRIL (A Proliferation Inducing Ligand) (human, UniProt O75888 105-250).
T1 construct: No catalogue number is printed; also called hAPRIL; source: bought: R&D Systems
T1 sequence (looked up): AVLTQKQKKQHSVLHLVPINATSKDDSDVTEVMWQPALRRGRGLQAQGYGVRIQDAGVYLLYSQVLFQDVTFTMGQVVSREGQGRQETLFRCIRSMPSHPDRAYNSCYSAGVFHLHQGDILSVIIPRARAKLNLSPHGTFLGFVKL
Briefly: SPR; blocking assay, Biacore T200; human BCMA-rFc immobilised; 1 µM 1-E6 (affibody-His6) or running buffer injected first, then 100 nM APRIL or 25 nM belantamab; PBS-T. As to conditions: both partners purified.

B1: recombinant human BCMA extracellular domain fused to the Fc portion of rabbit IgG (BCMA-rFc) (Fc fusion, UniProt Q02223 5-50, looked up)
chain: AGQCSQNEYFDSLLHACIPCQLRCSSNTPPLTCQRYCNASVTNSVK
notes: human B Cell Maturation Antigen (BCMA, TNFRSF17, CD269), residues 5-50 containing the ECD as told in the results; the methods give residues 1-54 of UniProt Q02223 for the biotinylated selection antigen (cat. no. 10620-H03H-B); no range is printed for 10620-H15H itself; The discussion speaks of 45 residues; also called human BCMA-rFc; immobilised BCMA; source: bought: Sino Biological (cat. no. …)
Turning to B1, the binding result is on record as “binds”.
